The record followed here is patent publication US9481871B2, “Nucleic acid encoding a polpeptide having aminotransferase activity, vectors and host cells comprising the nucleic acid” (KANEKA CORPORATION, priority 2010, dated 2016).

This series is described as follows: Activity for 1-benzyl-3-pyrrolidinone and optical purity of generated (S)-1-benzyl-3-aminopyrrolidine. It counts as biochemical. The settings on record: 57 mM 1-benzyl-3-pyrrolidinone, 57 mM (S)-1-phenethylamine, pH 7.0, 30° C., 2 hours, cell-free extract. The method, then: (Method for Determination of Activity for 1-benzyl-3-pyrrolidinone and Method for Measurement of Optical Purity of Generated (S)-1-benzyl-3-aminopyrrolidine)
Activity to catalyze transamination by acting on optically active (S)-1-phenethylamine and 1-benzyl-3-pyrrolidinone, so as to generate acetophenone and (S)-1-benzyl-3-aminopyrrolidine was examined. Each reagent was added to each cell-free extract obtained in Example 5 so that the final concentrations were as specified in the following composition of the substrate solution. After 2 hours of reaction at 30° C., the reaction solution was analyzed by HPLC under the following conditions.
[Composition of Substrate Solution]
[High Performance Liquid Chromatography Analysis Conditions] <Quantitative Analysis> • Column: Finepak SIL C18-T (JASCO Corporation) • Eluent: distilled water 945 mL/acetonitrile 555 mL/KH2PO4 7.5 g/SDS 2.16 g (adjusted with H3PO4 to pH 3.6) • Flow rate: 1 mL/minute • Detection: 254 nm • Column temperature: 40° C. <Analysis of Optical Purity> […]

B1: TAT: polypeptide having transamination activity from Arthrobacter sp. KNK04-25; amino acid sequence SEQ ID NO: 1 (protein, listed as Arthrobacter sp.)
chain: MSAITLESSLATFTRRFDVSAKLTELGKEVVPGGYSRNSFNFGPHAIYVESGDGAYISTVEGHRLLDLNNNFTVNVLGHNHPSVQRTLRGSIETGVSFGNPVALETELAQLLVERIPSIERVQFSCSASESCMSAVRVARAFTGRTKIAKFEGGYHGFTDPLQVSWHPDHDGDCGPDDAPKAIPDSGGIPAEDVANVVVLTQNDGEGTERILRAHASEIACVIVELESASGGLVTLEQDYVESLRELTSELGIVLIFDETVTLRAGYQGMQGDYGVAPDLTVMGKIIGGGFPLGAVGGSAEIMSVLESGLVSISGTHHGHKIALAAGISTMRELTQGAFDRLNGMATRVMEELNDWSSQRGSSFAVYGKGISHLAYGFMREPGLSIRTHRDYWRNFDGTGTQICSLELANRGFFPVARGDFSLSLPMSDDDITAFVETTKEIVTGIES
Consider B1, for which the “conversion rate to (S)-1-benzyl-3-aminopyrrolidine” value was determined as 100% and the “optical purity of generated (S)-1-benzyl-3-aminopyrrolidine” value stood at 100 % e.e.
